Assay results: patent US20130209454A1

Tests used:
Experiment in all cases: cell-based or functional assay
[1] = molecular target: Env of HIV-1 strain 1394C9G1(Rev-) (HIV-1)
[2] = molecular target: Env of HIV-1 strain 211-9 (HIV-1)
[3] = molecular target: Env of HIV-1 strain 235-47 (HIV-1)
[4] = molecular target: Env of HIV-1 strain 249M B10 (HIV-1)
[5] = molecular target: Env of HIV-1 strain 3301.v1.c24 (HIV-1)
[6] = molecular target: Env of HIV-1 strain 6480.v4.c25 (HIV-1)
[7] = molecular target: Env of HIV-1 strain 6535.3 (HIV-1)
[8] = molecular target: Env of HIV-1 strain 6952.v1.c20 (HIV-1)
[9] = molecular target: Env of HIV-1 strain AC10.0.29 (HIV-1)
[10] = molecular target: Env of HIV-1 strain BJOX009000.02.4 (HIV-1)
[11] = molecular target: Env of HIV-1 strain BJOX025000.01.1 (HIV-1)
[12] = molecular target: Env of HIV-1 strain C3347.c11 (HIV-1)
[13] = molecular target: Env of HIV-1 strain CAP210.2.00.E8 (HIV-1)
[14] = molecular target: Env of HIV-1 strain CNE17 (HIV-1)
[15] = molecular target: Env of HIV-1 strain CNE20 (HIV-1)
[16] = molecular target: Env of HIV-1 strain Du422.1 (HIV-1)
[17] = molecular target: Env of HIV-1 strain P0402_c2_11 (HIV-1)
[18] = molecular target: Env of HIV-1 strain PVO.4 (HIV-1)
[19] = molecular target: Env of HIV-1 strain T250-4 (HIV-1)
[20] = molecular target: Env of HIV-1 strain T251-18 (HIV-1)
[21] = molecular target: Env of HIV-1 strain THRO4156.18 (HIV-1)
[22] = molecular target: Env of HIV-1 strain WITO4160.33 (HIV-1)
[23] = molecular target: Env of HIV-1 strain X1254_c3 (HIV-1)
[24] = molecular target: Env of HIV-1 strain X2131_C1_B5 (HIV-1)
[25] = molecular target: Env of HIV-1 strain ZM109F.PB4 (HIV-1)
[26] = molecular target: Env of HIV-1 strain ZM135M.PL10a (HIV-1)
[27] = molecular target: Env of HIV-1 strain ZM197M.PB7 (HIV-1)
[28] = molecular target: Env of HIV-1 strain ZM214M.PL15 (HIV-1)
[29] = molecular target: HIV-1 Env of strain 1394C9G1(Rev-) (HIV-1)
[30] = molecular target: HIV-1 Env of strain 263-8 (HIV-1)
[31] = molecular target: HIV-1 Env of strain 62357_14_D3_4589 (HIV-1)
[32] = molecular target: HIV-1 Env of strain 6535.3 (HIV-1)
[33] = molecular target: HIV-1 Env of strain AC10.0.29 (HIV-1)
[34] = molecular target: HIV-1 Env of strain BJOX010000.06.2 (HIV-1)
[35] = molecular target: HIV-1 Env of strain BJOX015000.11.5 (HIV-1)
[36] = molecular target: HIV-1 Env of strain BJOX025000.01.1 (HIV-1)
[37] = molecular target: HIV-1 Env of strain C1080.c03 (HIV-1)
[38] = molecular target: HIV-1 Env of strain CNE17 (HIV-1)
[39] = molecular target: HIV-1 Env of strain CNE19 (HIV-1)
[40] = molecular target: HIV-1 Env of strain CNE53 (HIV-1)
[41] = molecular target: HIV-1 Env of strain CNE58 (HIV-1)
[42] = molecular target: HIV-1 Env of strain Ce0393_C3 (HIV-1)
[43] = molecular target: HIV-1 Env of strain Ce1086_B2 (HIV-1)
[44] = molecular target: HIV-1 Env of strain Ce1172_H1 (HIV-1)
[45] = molecular target: HIV-1 Env of strain Ce1176_A3 (HIV-1)
[46] = molecular target: HIV-1 Env of strain Du172.17 (HIV-1)
[47] = molecular target: HIV-1 Env of strain MS208.A1 (HIV-1)
[48] = molecular target: HIV-1 Env of strain Q259.d2.17 (HIV-1)
[49] = molecular target: HIV-1 Env of strain R2184.c04 (HIV-1)
[50] = molecular target: HIV-1 Env of strain T257-31 (HIV-1)
[51] = molecular target: HIV-1 Env of strain ZM135M.PL10a (HIV-1)

NIH45-46 (antibody), sequence (VH): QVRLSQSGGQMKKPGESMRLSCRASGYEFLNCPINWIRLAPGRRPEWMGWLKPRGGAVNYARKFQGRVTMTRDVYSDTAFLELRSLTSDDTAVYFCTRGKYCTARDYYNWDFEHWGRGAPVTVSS
NIH45-46 (antibody), sequence (V domain): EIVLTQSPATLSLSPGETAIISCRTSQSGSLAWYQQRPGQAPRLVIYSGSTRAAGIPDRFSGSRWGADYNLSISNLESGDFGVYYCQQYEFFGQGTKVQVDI

Substance: NIH45-46 (antibody)
- IC80 [1]: 0.38 µg/mL
- IC80 [2]: > 50 µg/mL
- IC80 [3]: 1.49 µg/mL
- IC80 [4]: 0.17 µg/mL
- IC80 [5]: 0.033 µg/mL
- IC80 [6]: 0.1 µg/mL
- IC80 [7]: 0.54 µg/mL
- IC80 [8]: 0.07 µg/mL
- IC80 [9]: 1.93 µg/mL
- IC80 [10]: 1.16 µg/mL
- IC80 [11]: 10 µg/mL
- IC80 [12]: 0.094 µg/mL
- IC80 [13]: > 50 µg/mL
- IC80 [14]: 0.734 µg/mL
- IC80 [15]: > 50 µg/mL
- IC80 [16]: > 50 µg/mL
- IC80 [17]: 0.214 µg/mL
- IC80 [18]: 0.41 µg/mL
- IC80 [19]: > 50 µg/mL
- IC80 [20]: 3.68 µg/mL
- IC80 [21]: 8.22 µg/mL
- IC80 [22]: 0.26 µg/mL
- IC80 [23]: 0.107 µg/mL
- IC80 [24]: 0.88 µg/mL
- IC80 [25]: 0.437 µg/mL
- IC80 [26]: 2.79 µg/mL
- IC80 [27]: 0.55 µg/mL
- IC80 [28]: 0.59 µg/mL
- IC50, pseudovirus neutralization [29]: 0.09 µg/mL
- IC50, pseudovirus neutralization [30]: 0.05 µg/mL
- IC50, pseudovirus neutralization [31]: 0.06 µg/mL
- IC50, pseudovirus neutralization [32]: 0.14 µg/mL
- IC50, pseudovirus neutralization [33]: 0.56 µg/mL
- IC50, pseudovirus neutralization [34]: 0.87 µg/mL
- IC50, pseudovirus neutralization [35]: 0.06 µg/mL
- IC50, pseudovirus neutralization [36]: 0.18 µg/mL
- IC50, pseudovirus neutralization [37]: 2.48 µg/mL
- IC50, pseudovirus neutralization [38]: 0.261 µg/mL
- IC50, pseudovirus neutralization [39]: 0.07 µg/mL
- IC50, pseudovirus neutralization [40]: 0.008 µg/mL
- IC50, pseudovirus neutralization [41]: 0.43 µg/mL
- IC50, pseudovirus neutralization [42]: 0.334 µg/mL
- IC50, pseudovirus neutralization [43]: 0.04 µg/mL
- IC50, pseudovirus neutralization [44]: > 50 µg/mL
- IC50, pseudovirus neutralization [45]: 0.93 µg/mL
- IC50, pseudovirus neutralization [46]: > 50 µg/mL
- IC50, pseudovirus neutralization [47]: 0.09 µg/mL
- IC50, pseudovirus neutralization [48]: 0.043 µg/mL
- IC50, pseudovirus neutralization [49]: 0.034 µg/mL
- IC50, pseudovirus neutralization [50]: 0.49 µg/mL
- IC50, pseudovirus neutralization [51]: 0.59 µg/mL
